Consider one molecule from US20230303719, “HUMANIZED 3E10 ANTIBODIES, VARIANTS, AND ANTIGEN BINDING FRAGMENTS THEREOF” (YALE UNIVERSITY, published 2023).

Series [1] concerns the target humanized 3E10 V66 (HEK293) (synthetic construct, UniProt P01857; SEQ:1-446,SEQ:1-218). Briefly: BLI; 1:1 model; antibody on AHC2 sensor; ka 2.42E5, kdis 3.13E-4. The conditions noted are these: tags: human Fc IgG; transiently expressed in HEK293; chain copies: 2 heavy + 2 light (inferred); hairpin.
A further series has as its target humanized 3E10 V66 (CHO) (synthetic construct, UniProt P01857; SEQ:1-446,SEQ:1-218). Nature of the series: BLI; 1:1 model; antibody on AHC2 sensor; ka 3.08E5, kdis 7.99E-4. The conditions noted are these: tags: human Fc IgG; transiently expressed in CHO; chain copies: 2 heavy + 2 light (inferred); hairpin.
In series [2] the target is 3E10-D31N (chimeric, murine VH/VL). Nature of the series: BLI; 1:1 model; antibody on AHC2 sensor; ka 2.29E5, kdis 4.76E-4. The conditions noted are these: tags: human Fc IgG; chain copies: 2 heavy + 2 light (inferred); hairpin.
For series [3], the target named is 3E10-D31N IgG4 S228P/F234A/L235A/H310Q (synthetic construct, UniProt P01861; SEQ:1-443,SEQ:1-218). Briefly: BLI; 1:1 model; antibody on AHC2 sensor; RNA 62.5-500 nM. The following applies: tags: human IgG4 Fc; chain copies: 2 heavy + 2 light (inferred); hairpin.
Series [4] has as its target 3E10-D31N IgG4 S228P/F234A/L235A (synthetic construct, UniProt P01861; SEQ:1-443,SEQ:1-218). Described as above. The conditions noted are these: tags: human IgG4 Fc; chain copies: 2 heavy + 2 light (inferred); hairpin.
The target of series [5] is 3E10-D31N (chimeric, murine VH/VL). The description is as above. The following applies: tags: human Fc IgG; chain copies: 2 heavy + 2 light (inferred); hairpin.
The target in series [6] is 3E10-D31N IgG4 S228P/F234A/L235A/T307Q/N434A (synthetic construct, UniProt P01861; SEQ:1-443,SEQ:1-218). The series is described as above. The conditions noted are these: tags: human IgG4 Fc; chain copies: 2 heavy + 2 light (inferred); hairpin.
Series [7] deals with 3E10-D31N IgG4 S228P/F234A/L235A/M252Y/S254T/T256E (synthetic construct, UniProt P01861; SEQ:1-443,SEQ:1-218). The description is as above. The following applies: tags: human IgG4 Fc; chain copies: 2 heavy + 2 light (inferred); hairpin.

humanized 3E10 V66 (CHO), sequence (P01857 other isoform, or with tags, fused parts or gaps, chain 1 of 2): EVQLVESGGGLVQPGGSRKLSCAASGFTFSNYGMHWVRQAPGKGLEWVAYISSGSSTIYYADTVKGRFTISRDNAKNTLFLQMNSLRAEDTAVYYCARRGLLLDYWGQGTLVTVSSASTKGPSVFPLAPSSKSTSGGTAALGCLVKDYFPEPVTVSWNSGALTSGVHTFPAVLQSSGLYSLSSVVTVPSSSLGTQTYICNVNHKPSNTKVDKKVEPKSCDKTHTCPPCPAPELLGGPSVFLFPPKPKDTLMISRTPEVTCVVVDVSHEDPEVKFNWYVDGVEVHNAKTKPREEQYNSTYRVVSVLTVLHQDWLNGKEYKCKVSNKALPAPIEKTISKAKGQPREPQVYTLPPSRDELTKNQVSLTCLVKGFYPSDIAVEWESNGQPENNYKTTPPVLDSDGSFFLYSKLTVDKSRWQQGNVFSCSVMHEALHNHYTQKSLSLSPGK
humanized 3E10 V66 (CHO), sequence (chain, as listed by the source, chain 2 of 2): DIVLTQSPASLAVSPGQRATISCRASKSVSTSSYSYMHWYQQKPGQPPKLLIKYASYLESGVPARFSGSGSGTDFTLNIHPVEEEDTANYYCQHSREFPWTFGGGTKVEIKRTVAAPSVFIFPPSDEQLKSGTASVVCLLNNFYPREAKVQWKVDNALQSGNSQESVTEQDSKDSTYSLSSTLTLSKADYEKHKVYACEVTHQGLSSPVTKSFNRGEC
humanized 3E10 V66 (HEK293), sequence (P01857 other isoform, or with tags, fused parts or gaps, chain 1 of 2): as the sequence (P01857 other isoform, or with tags, fused parts or gaps, chain 1 of 2) above
humanized 3E10 V66 (HEK293), sequence (chain, as listed by the source, chain 2 of 2): as the sequence (chain, as listed by the source, chain 2 of 2) above

B1: 3p-hpRNA RIG-I agonist (89 nt) (ssRNA)
RNA: GGAGCAAAAGCAGGGUGACAAAGACAUAAUGGAUCCAAACACUGUGUCAAGCUUUCAGGUAGAUUGCUUUCUUUGGCAUGUCCGCAAAC
modifications: 5'-triphosphate
As for B1, the Kd amounted to 1.3 nM in series [1]; 2.6 nM with humanized 3E10 V66 (CHO); 2.08 nM in series [2]; 6.58 nM in series [3]; 3.33 nM in series [4]; 10.5 nM in series [5]. The Kd was 12.7 nM in series [6] and 5 nM in series [7].
